The target in test [1] is T1, Recombinant human IL-1beta (rhIL-1b) (human, UniProt P01584 117-269). Description: cell-based or functional assay.
Test [2] addresses T1, Recombinant human IL-1beta (rhIL-1b). Put plainly: cell-based or functional assay. The source holds these as a separate data set.
For test [3] the target is unchanged. Put plainly: Biacore, Low Resolution screen. (In general: Surface plasmon resonance follows binding to a sensor surface in real time, without labels.)
Test [4] has as its target T2, IL-1β R11A mutant (human, UniProt P01584 117-269).
T2 construct: site-directed mutant
Put plainly: binding to site-directed IL-1β mutant; X = abrogation of binding.

Test [5] concerns the target T3, IL-1β H30A mutant (human, UniProt P01584 117-269).
T3 construct: site-directed mutant
The test is described as above.

Test [6] addresses T1, Recombinant human IL-1beta (rhIL-1b). Description: Biacore, Medium Resolution; IL-1β in solution; medium-resolution Biacore.
For test [7] the target is unchanged. Put plainly: Biacore low-res, mAb captured, 25C; IL-1β in solution (118 nM) over captured mAb; low-resolution Biacore, 25 C.
Test [8] shares this target. Description: cell-based or functional assay. The source holds these as a separate data set.
Test [9] has the same target. Description: cell-based or functional assay. This is another data set of the same source.
For test [10] the target is unchanged. Put plainly: KinExA, dual curve analysis.
Test [11] has the same target. Description: KinExA, single KD-controlled titration. (In KinExA the mixture passes briefly over coated beads that capture the unbound partner.)
Test [12] concerns the target T3, IL-1β H30A mutant. Description: binding to site-directed IL-1β mutants.
For test [13], the target named is T1, Recombinant human IL-1beta (rhIL-1b). Description: Biacore high-res, mAb amine-coupled, 23C.
The target in a further test is T4, IL-1β R4A mutant (human, UniProt P01584 117-269).
T4 construct: site-directed mutant
Description: binding to site-directed IL-1β mutant; X = abrogation of binding.

Test [14] addresses T1, Recombinant human IL-1beta (rhIL-1b). Description: KinExA, triple curve analysis.
For test [15] the target is unchanged. Put plainly: KinExA direct kinetic method.
The target is the same in test [16]. Description: calculated as kon x KD from KinExA.
The target of test [17] is T2, IL-1β R11A mutant. Description: binding to site-directed IL-1β mutants.
Test [18] deals with T1, Recombinant human IL-1beta (rhIL-1b). Description: Biacore, Low Resolution screen; complex kinetics.
Test [19] shares this target. Put plainly: Biacore high-res, mAb amine-coupled, 23C, long association and dissociation, IL-1β 55 pM.
The target is the same in test [20]. Description: Biacore, Medium Resolution; IL-1β in solution; medium-resolution Biacore; complex kinetics.
For test [21] the target is unchanged. Description: Biacore, Medium Resolution; complex kinetics; IL-1β in solution; medium-resolution Biacore; complex kinetics.
The target is the same in test [22]. Description: Biacore low-res, mAb captured, 25C; IL-1β in solution (118 nM) over captured mAb; low-resolution Biacore, 25 C; poor fit to 1:1 model.
Test [23] shares this target. Description: Biacore low-res, mAb captured, 25C; poor fit to 1:1 model; IL-1β in solution (118 nM) over captured mAb; low-resolution Biacore, 25 C; poor fit to 1:1 model.

For orientation: Kd means the free concentration of one partner at which half of the binding sites on the other are occupied at equilibrium, for simple one-to-one binding. As usually defined, the koff is a measure of how fast the partners let go of each other. A word on the kon: it is the second-order rate constant of association.

B1: 9.54.1 (antibody, human IgG4, V domains shown)
VH: QVQLVESGGGVVQPGRSLRLSCAASGFTFSSFGMHWVRQAPGKGLEWVAVIWYDGSNKYYADSVKGRFTISRDNSKNTLYLQMNSLRAEDTAVYYCARDPNYDILTGYYYYGMDVWGQGTTVTVS
VL: SSELTQDPAVSVALGQTVRITCQGDILRTYYASWYQQKPGQAPVLVIYGKNDRPSGIPDRFSGSSSGNTASLTITGAQAEDEADYYCDSRDNTVTHLVFGGGTKLTVL
notes: lambda; also called 9.54.2
Consider B1, for which, in [1], the “% IL-6 production, supernatant 1:5 dilut.” value is 5%; the “% IL-6 production, supernatant 1:10 dilut.” value came to 21%; the “% IL-6 production, supernatant 1:20 dilut.” value was determined as 36%. In addition, the “EC50, inhibition of IL-1β-induced IL-6 production in MRC-5 cells” value (shortened to “EC50, inhibition … in MRC-5 cells”) in test [2] is 11600 pM. The Kd in [3] was determined as 370 pM. Also, the binding result with IL-1β R11A mutant [4] is reported as “no binding”. For the same molecule, the binding result in the test with IL-1β H30A mutant [5] is listed as “no binding”. In test [6], the Kd is 140 pM, the off-rate (koff) was determined as 0.00035 s⁻¹ and the kon turned out to be 2.5e+06 M⁻¹ s⁻¹. Moreover, in test [7], the Kd was determined as 370 pM, the koff amounted to 0.00085 s⁻¹ and the kon turned out to be 2.3e+06 M⁻¹ s⁻¹.

B2: 5.5.1 (antibody, IgG4, V domains shown)
VH: QVQLVESGGGVVQPGRSLRLSCAASGFTFSSYGMHWVRQAPGKGLEWVAVIWYDGDNKYYADSVQGRFTISRDNSKNTLYLQMNSLRPEDTAVYYCARERSSSWYFDYWGQGTLVTVSS
VL: QSALTQPASVSGSPGQSITISCTGTSSDVGSYNLVSWYQQHPGKAPKLMIYEVSKRPSGISNRFSGSKSGNTASLTISGLQAEDEADYYCCSYAGSSTWVFGGGTKLTVL
notes: lambda; also called mAb 5.5.1; Ab 5.5.1
In the case of B2, the “% IL-6 production, supernatant 1:5 dilut.” value in test [1] came to 1%. For the same molecule, in test [1], the “% IL-6 production, supernatant 1:10 dilut.” value came to 3%. Besides, in test [1], the “% IL-6 production, supernatant 1:20 dilut.” value was 6%. Moreover, the “EC50, inhibition … in MRC-5 cells” value in [2] came out at 216 pM. In [8], the “EC50, inhibition of IL-1β-induced IL-8 production in human whole blood” value (“EC50, inhibition … in human whole blood” for short) was determined as 1670 pM. Moreover, the “In Vivo Potency EC50, inhibition of IL-6 induced in mice by human IL-1β” value (from here on “In Vivo Potency EC50, inhibition”) in test [9] stood at 51 pmoles/mouse. The Kd was 20 pM in test [10]; 278 pM in [3]; 19 pM in test [11]; 44.7 pM in test [13]; 180 pM in test [6]; 278 pM in test [7]. In addition, the binding result with IL-1β H30A mutant [12] is “binds”; with IL-1β R4A mutant, “no binding”; with IL-1β R11A mutant [4] it was “no binding”. Also, the koff in test [13] turned out to be 0.000704 s⁻¹; in [6], 0.00057 s⁻¹; in test [7], 0.0005 s⁻¹. Moreover, the kon was determined as 1.57e+07 M⁻¹ s⁻¹ in [13], 3.1e+06 M⁻¹ s⁻¹ in [6] and 1.8e+06 M⁻¹ s⁻¹ in test [7].

B3: 5.36.1 (antibody, human IgG4, V domains shown)
VH: QVQLQQSGPGLVKPSQTLSLTCAISGDSVSSNSAAWNWIRQSPSRGLEWLGRTYYRSKWYNDYAVSVKSRITINPDTSKNQFSLQLNSVTPEDTAVYYCAREEQQLVRYYYYYGMDVWGQGTTVTVS
VL: DIVMTQTPLSLSVTPGQPASISCKSSQSLLHSDGRTYLYWYLQRPGQPPQLLIYEASYRFSGVPDRFSGSGSGTDFTLKISRVEAEDVGIYYCMQSIQLPRTFGQGTRLEIK
notes: kappa
For B3, in test [1], the “% IL-6 production, supernatant 1:5 dilut.” value turned out to be 6%; the “% IL-6 production, supernatant 1:10 dilut.” value worked out at 8%; the “% IL-6 production, supernatant 1:20 dilut.” value was 18%. For the same molecule, in test [2], the “EC50, inhibition … in MRC-5 cells” value was found to be 3150 pM. Moreover, the Kd in test [3] turned out to be 712 pM. The binding result with IL-1β R4A mutant was “no binding”. In the test with IL-1β R11A mutant [4], the binding result was “no binding”. In addition, in [6], the Kd came to 580 pM, the koff worked out at 0.00058 s⁻¹ and the kon turned out to be 1e+06 M⁻¹ s⁻¹. In [7], the Kd was 712 pM, the koff was found to be 0.00042 s⁻¹ and the kon came to 590000 M⁻¹ s⁻¹.

B4: 9.5.2 IgG2 (antibody, V domains shown)
VH: EVQLVESGGGLVKPGRSLRLSCTGSGFTFGDYALNWFRQAPGMGLEWVGFIRGKAYGGTTEYAASVKGRFTISRDDSKSIAYLQMNSLKTEDTAVYYCNREVEYCRSSENYCYGMDVWGQGTTVTVS
VL: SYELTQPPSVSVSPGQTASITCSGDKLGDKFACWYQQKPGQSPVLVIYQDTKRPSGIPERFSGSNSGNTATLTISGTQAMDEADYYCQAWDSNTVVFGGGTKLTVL
notes: also called mAb 9.5.2 (IgG2 isotype); 9.5.2 IgG2λ
As for B4, in test [2], the “EC50, inhibition … in MRC-5 cells” value was determined as 4 pM. Also, in test [8], the “EC50, inhibition … in human whole blood” value turned out to be 69 pM. The “In Vivo Potency EC50, inhibition” value in [9] came to 8 pmoles/mouse. Further, the values for the Kd in test [14] and in test [11] were 0.204 pM and 0.041 pM, respectively.

B5: 9.5.2 IgG1 (antibody, V domains shown)
VH: B4 VH
VL: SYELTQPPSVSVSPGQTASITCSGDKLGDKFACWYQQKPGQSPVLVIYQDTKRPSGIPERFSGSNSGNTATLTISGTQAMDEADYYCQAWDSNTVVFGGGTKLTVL
As for B5, the “EC50, inhibition … in MRC-5 cells” value in test [2] is 1 pM. The “EC50, inhibition … in human whole blood” value in test [8] amounted to 106 pM. In addition, the “In Vivo Potency EC50, inhibition” value in test [9] is 5 pmoles/mouse.

B6: 9.5.2 IgG4 (antibody, V domains shown)
VH: B4 VH
VL: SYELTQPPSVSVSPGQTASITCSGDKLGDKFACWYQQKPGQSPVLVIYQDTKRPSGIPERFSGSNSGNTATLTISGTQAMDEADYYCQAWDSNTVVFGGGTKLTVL
notes: also called mAb 9.5.2; mAb 9.5.2 (IgG4 isotype)
As for B6, the “% IL-6 production, supernatant 1:5 dilut.” value in test [1] was found to be 0%. The “% IL-6 production, supernatant 1:10 dilut.” value in test [1] was 0%. Moreover, in [1], the “% IL-6 production, supernatant 1:20 dilut.” value turned out to be 0%. Also, in [2], the “EC50, inhibition … in MRC-5 cells” value was 4 pM. Besides, the “EC50, inhibition … in human whole blood” value in [8] came to 135 pM. The “In Vivo Potency EC50, inhibition” value in test [9] turned out to be 5 pmoles/mouse. The kon in test [15] is 3.4e+06 M⁻¹ s⁻¹; in [19], 710000 M⁻¹ s⁻¹; in [20] it was 2.6e+06 M⁻¹ s⁻¹; in test [22] it was 1.1e+06 M⁻¹ s⁻¹. The Kd in test [14] stood at 0.181 pM; in test [11], 0.04 pM; in test [18], 1640 pM; in test [19] it was 1.5 pM; in test [21] it was 130 pM; in test [23], 1640 pM. Further, the koff in [16] is 6.1e-07 s⁻¹; in test [19], 1.1e-06 s⁻¹; in test [20], 0.00035 s⁻¹; in test [22], 0.0018 s⁻¹. Moreover, the binding result is on record as “binds” in the test with IL-1β R11A mutant [17], “binds” in the test with IL-1β H30A mutant [12] and “no binding” in the test with IL-1β R4A mutant.

B7: 8.18.1 (antibody, human IgG4, V domains shown)
VH: QVQLQESGPGLVKPSETLSLTCTVSGGSVSSGGYYWSWIRQPPGKGLEWIGYFYYSGSPNYNPSLKRRIAISVDTSKNQFSLRLSSVTAADTAVYYCARDPMHYYGMDVWGQGTTVTVSS
VL: SSELTQPPSVSVFPGQTANITCSGDKLGDKFACWYQQKPGQSPVLVIYRDNKRPSGIPERFSGSNSGNTATLTISGTQAMDEADYYCQAWDSSTYVVFGGGTKLTVL
notes: lambda; also called mAb 8.18.1
Turning to B7, in test [1], the “% IL-6 production, supernatant 1:5 dilut.” value came to 2%; the “% IL-6 production, supernatant 1:10 dilut.” value came out at 3%; the “% IL-6 production, supernatant 1:20 dilut.” value is 9%. The “EC50, inhibition … in MRC-5 cells” value in test [2] was 536 pM. Moreover, the “EC50, inhibition … in human whole blood” value in test [8] is 2290 pM. Besides, in test [3], the dissociation constant Kd was found to be 629 pM. In test [13], the equilibrium dissociation constant (Kd) worked out at 388 pM, the koff was 0.000188 s⁻¹ and the kon is 485000 M⁻¹ s⁻¹. Also, the binding result with IL-1β R4A mutant is given as “no binding”. Besides, the binding result in the test with IL-1β R11A mutant [4] is given as “no binding”. Besides, in test [6], the Kd is 450 pM, the koff came out at 0.00022 s⁻¹ and the kon worked out at 490000 M⁻¹ s⁻¹. Further, in [7], the Kd came to 629 pM, the koff was 0.00022 s⁻¹ and the on-rate (kon) came out at 350000 M⁻¹ s⁻¹.

The values are drawn from patent US20070065439A1 (Amgen, published 2007).
